Results on 52 molecules are retold here after patent publication US20250277208A1, “Method of Peptide Library Construction and Peptides Thereof” (Alcamena Stem Cell Therapeutics, LLC, priority 2024, published 2025).

B1: Peptide 44 (peptide)
peptide: H-SVRDLQKQMCHIVG-OH
notes: Printed SVRDLQKOMCHIVG (the letter O is as printed, perhaps a misprint); termini not protected
B2: Peptide 9 (peptide)
peptide: SVRDLLRRMCHIVG
notes: linear, N and C termini not protected; also called 9 (parent); parent peptide 9
B3: Peptide 33 (peptide)
peptide: SVRDLIRMMCHIVG
notes: termini not protected; also called variant 33
B4: Control peptide PN-1974 (peptide)
peptide: H-FD[hLeu]DIHLLFLPTEWEKDKNEE-OH
SMILES: CC[C@H](C)[C@H](NC(=O)[C@H](CC(=O)O)NC(=O)[C@H](CCC(C)C)NC(=O)[C@H](CC(=O)O)NC(=O)[C@@H](N)Cc1ccccc1)C(=O)N[C@@H](Cc1c[nH]cn1)C(=O)N[C@@H](CC(C)C)C(=O)N[C@@H](CC(C)C)C(=O)N[C@@H](Cc1ccccc1)C(=O)N[C@@H](CC(C)C)C(=O)N1CCC[C@H]1C(=O)N[C@H](C(=O)N[C@@H](CCC(=O)O)C(=O)N[C@@H](Cc1c[nH]c2ccccc12)C(=O)N[C@@H](CCC(=O)O)C(=O)N[C@@H](CCCCN)C(=O)N[C@@H](CC(=O)O)C(=O)N[C@@H](CCCCN)C(=O)N[C@@H](CC(N)=O)C(=O)N[C@@H](CCC(=O)O)C(=O)N[C@@H](CCC(=O)O)C(=O)O)[C@@H](C)O
notes: linear, termini not protected
B5: Control peptide C1 (peptide)
peptide: SVKDLQHGLRHVVG
notes: homologous to peptide 9 without its mutations (two unmutated fragments of IL-6R); whether its termini were protected is not clear
B6: Control peptide CA11 (peptide)
peptide: NQQLIEEIIQILHKIFEIL
notes: published peptide (Kobayashi et al. 2011) synthesized by the inventors; whether its termini were protected is not clear
B7: Control peptide PN-2519 (peptide)
peptide: FD[Cha]DIHLL[Phe(4-F)]LPTEWEK[Gla]KNEE
notes: Printed FD(Cha)DIHLL(4F)LPTEWEK(Cla)KNEE; tested in a linear form
B8: Control peptide RA07 (peptide)
peptide: INTLLSEINSILLDIISLL
notes: as for B6

Square brackets hold non-standard residues; d marks the D form. Ends that are not written are not given here. Phe(4-F) = N[C@@H](Cc1ccc(F)cc1)C(=O)O; Gla = N[C@@H](CC(C(=O)O)C(=O)O)C(=O)O; Cha = N[C@@H](CC1CCCCC1)C(=O)O; hLeu = CC(C)CC[C@H](N)C(=O)O

In one assay the target is T1, Biotinylated recombinant human IL-6 (human, UniProt P05231 30-212, biotinylated (sites not given)). Put plainly: cell-based or functional assay.
Regarding Ac-SVRDLLRRMKVCVG-NH2 [Peptide 27 (2)], the “IC50, inhibition of IL-6-induced cell signaling (IL-6 Bioassay, luciferase reporter cells)” value (shortened to “IC50, inhibition”) turned out to be 580 nM.

Turning to Ac-TIRDLLRRMCHIVG-NH2 [Peptide 71], the “IC50, inhibition” value came to 3400 nM.

In the case of Ac-FSFRDLLRRMCHIVG-NH2 [Peptide 72], the “IC50, inhibition” value is 23.5 nM.

In the case of Ac-ATIRDLIRMMKVCVG-NH2 [Peptide 82], the “IC50, inhibition” value came to 183 nM.

Another assay addresses T1, Biotinylated recombinant human IL-6. In words: SPR (Biacore), IL-6 on chip. Background: Surface plasmon resonance follows binding to a sensor surface in real time, without labels.
The Kd is the constant that tells how readily two partners part at equilibrium. On to SVRDLPTQMCHIVG (termini not protected) [Peptide 37], for which the Kd is 649 nM.

For B1, the binding result is listed as “no binding (tested: 20 µM highest peptide concentration)”.

For the molecule ACMDLLRRMCHIVG (termini not protected) [Peptide 28], the Kd was found to be 2730 nM.

As to SVRDLLRRMCVFWG (termini not protected) [Peptide 49], the binding result is on record as “no binding (tested: 20 µM highest peptide concentration)”.

For the molecule B2, the dissociation constant Kd is 2580 nM.

With B3, the Kd came to 545 nM.

As for SVRDLLRRMKVCVG (termini not protected) [Peptide 27], the Kd worked out at 58 nM.

In the case of FAFRDLLRRMCHIVG (termini not protected) [Peptide 45], the dissociation constant (Kd) turned out to be 92 nM.

For SVRDLQSTMCHIVG (termini not protected) [Peptide 47], the binding result is “no binding (tested: 20 µM highest peptide concentration)”.

In the case of SVRDANYRMCHIVG (termini not protected) [Peptide 39], the binding result is “no binding (tested: 20 µM highest peptide concentration)”.

SVRDLLSHNCHIVG (termini not protected) [Peptide 43]: the binding result is on record as “no binding (tested: 20 µM highest peptide concentration)”.

Regarding SVRDWTPRMCHIVG (termini not protected) [Peptide 48], the Kd is 2820 nM.

Turning to ETIRDLLRRMCHIVG (termini not protected) [Peptide 24], the dissociation constant Kd is 119 nM.

Regarding ATIRDLLRRMCHIVG (termini not protected) [Peptide 38], the Kd stood at 54 nM.

Regarding CVYRDLLRRMCHIVG (termini not protected) [Peptide 35], the binding result was “no binding (tested: 20 µM highest peptide concentration)”.

Another assay has the same target. Put plainly: SPR (Biacore), IL-6 on chip. The source holds these as a separate data set.
Take Ac-ATIRDLLSHNCHIVG-NH2 [Peptide 52]: the binding result was “no binding (tested: 20 µM highest peptide concentration)”.

On to B4, for which the dissociation constant (Kd) was 61 nM.

Take Ac-AVRDLLRRMCHIVG-NH2 [Peptide 62]: the dissociation constant (Kd) was 519 nM.

Turning to Ac-TIRDLLRRMCHIVG-NH2 [Peptide 71], the Kd stood at 49 nM.

For Ac-SVRDLIRRMCHIVG-NH2 [Peptide 68], the Kd is 724 nM.

Regarding Ac-TIRDLLRMMKVIVG-NH2 [Peptide 84], the dissociation constant Kd is 565 nM.

With Ac-SVRDLLRRMCHCVG-NH2 (cysteine pairing not given here) [Peptide 67], the binding result is on record as “no binding (tested: 20 µM highest peptide concentration)”.

With Ac-SVRDLLRRMKHIVG-NH2 [Peptide 65], the dissociation constant (Kd) came to 150 nM.

As for Ac-SVRDLLRRMCVIVG-NH2 [Peptide 66], the dissociation constant Kd was determined as 283 nM.

On to Ac-TVRDLLRRMCHIVG-NH2 [Peptide 55], for which the equilibrium dissociation constant (Kd) is 224 nM.

Consider Ac-SVRDLLRMMCHIVG-NH2 [Peptide 69], for which the dissociation constant Kd is 172 nM.

On to Ac-SFRDLLRRMCHIVG-NH2 [Peptide 63], for which the dissociation constant (Kd) stood at 162 nM.

Ac-SVRDLLRRMKVIVG-NH2 [Peptide 73]: the dissociation constant (Kd) amounted to 1130 nM.

In the case of Ac-SIRDLLRRMCHIVG-NH2 [Peptide 56], the Kd came out at 305 nM.

As for Ac-FSFRDLLRMMCHIVG-NH2 [Peptide 80], the dissociation constant Kd amounted to 249 nM.

Consider Ac-FAFRDLLRMMCHIVG-NH2 [Peptide 75], for which the Kd was 132 nM.

As for Ac-FAFRDLIRMMKHIVG-NH2 [Peptide 77], the Kd is 405 nM.

Ac-ASVRDLLRRMCHIVG-NH2 [Peptide 54]: the dissociation constant Kd is 422 nM.

As for Ac-FSFRDLLRMMKVIVG-NH2 [Peptide 81], the Kd worked out at 1270 nM.

For Ac-FSFRDLIRMMKVCVG-NH2 [Peptide 93], the Kd came out at 265 nM.

Ac-FSVRDLIRMMKVCVG-NH2 [Peptide 87]: the equilibrium dissociation constant (Kd) stood at 47 nM.

Regarding Ac-FSVRDLLRRMCHIVG-NH2 [Peptide 61], the Kd is 144 nM.

As for Ac-FAFRDLIRMMCVIVG-NH2 [Peptide 78], the Kd worked out at 1490 nM.

As for Ac-FAFRDLIRMMCHIVG-NH2 (also called variant 58) [Peptide 58], the Kd was determined as 71 nM.

On to Ac-FAFRDLIRMMKVIVG-NH2 [Peptide 76], for which the Kd is 1300 nM.

In the case of B5, the binding result was “no binding (tested: 20 µM highest peptide concentration)”.

Consider B6, for which the equilibrium dissociation constant (Kd) was 50800 nM.

Turning to Ac-FAFRDLLSHNCHIVG-NH2 [Peptide 59], the binding result is reported as “no binding (tested: 20 µM highest peptide concentration)”.

Turning to Ac-ATIRDLLRRMKVCVG-NH2 [Peptide 53], the Kd was 436 nM.

As for Ac-ATIRDLIRMMCHIVG-NH2 (also called peptide variant 51) [Peptide 51], the dissociation constant Kd worked out at 128 nM.

On to Ac-SVRDLIRMMKVCVG-NH2 [Peptide 64], for which the Kd came to 1390 nM.

Regarding Ac-FAFRDLLRRMKVCVG-NH2 [Peptide 60], the binding result is on record as “no binding (tested: 20 µM highest peptide concentration)”.

As for B7, the binding result is listed as “no binding (tested: 20 µM highest peptide concentration)”.

As for B8, the binding result is on record as “no binding (tested: 20 µM highest peptide concentration)”.
